{
  "source": "patent US20230141962A1",
  "binders": {"B1": {"name": "scFv clone #26 (scFv)", "scFv": "QAVLTQAPSASGTLGQQVTISCSGTTSNIGRNTVNWYQHLPGTAPKLLIFVSNQRPSGVPDRFSGSKSGTSASLVISGLQSEDEADYYCGAWDDSLDGMLFGGGTKLTVLGSRGGGGSGGGGSGGGGSLEMAQVQLVQSGAEVKKPGASVKVSCKASGYTFTSYGISWVRQAPGQGLEWMGWISAYNGNTNYAQKLQGRVTMTTDTSTSTAYMELRSLRSDDTAVYYCARGYYGDLDPWGQGTLVTVSSTSGQAGQ"}},
  "molecular_target": "SARS-CoV-2 spike protein S1 subunit (WIV4) (SARS-CoV-2 (isolate 2019-nCoV, WIV4)), P0DTC2",
  "settings": "remark: other sources report otherwise",
  "data": [
    {"binder": "B1", "values": [
      {"measurement": "IC50", "value": 1.33, "unit": "nM"}
    ]}
  ]
}
